B1: P1AA9641 CD40 × FAP (28H1) (2 + 1) (bispecific antibody, human IgG1, kappa, L234A L235A)
heavy 1: EVQLVESGGGLVQPGGSLRLSCAASGYSFTGYYIHWVRQAPGKGLEWVARVIPNAGGTSYNQKFKGRFTLSVDNSKNTAYLQMNSLRAEDTAVYYCAREGIYWWGQGTLVTVSSASTKGPSVFPLAPSSKSTSGGTAALGCLVKDYFPEPVTVSWNSGALTSGVHTFPAVLQSSGLYSLSSVVTVPSSSLGTQTYICNVNHKPSNTKVDKKVEPKSCDKTHTCPPCPAPEAAGGPSVFLFPPKPKDTLMISRTPEVTCVVVDVSHEDPEVKFNWYVDGVEVHNAKTKPREEQYNSTYRVVSVLTVLHQDWLNGKEYKCKVSNKALGAPIEKTISKAKGQPREPQVCTLPPSRDELTKNQVSLSCAVKGFYPSDIAVEWESNGQPENNYKTTPPVLDSDGSFFLVSKLTVDKSRWQQGNVFSCSVMHEALHNHYTQKSLSLSPGGGGGSGGGGSGGGGSGGGGSEIVLTQSPGTLSLSPGERATLSCRASQSVSRSYLAWYQQKPGQAPRLLIIGASTRATGIPDRFSGSGSGTDFTLTISRLEPEDFAVYYCQQGQVIPPTFGQGTKVEIK
heavy 2: not shown
light: DIQMTQSPSSLSASVGDRVTITCRSSQSLVHSNGNTFLHWYQQKPGKAPKLLIYTVSNRFSGVPSRFSGSGSGTDFTLTISSLQPEDFATYFCSQTTHVPWTFGQGTKVEIKRTVAAPSVFIFPPSDEQLKSGTASVVCLLNNFYPREAKVQWKVDNALQSGNSQESVTEQDSKDSTYSLSSTLTLSKADYEKHKVYACEVTHQGLSSPVTKSFNRGEC
notes: 28H1 VH and VL fused to the C-termini of the knob and hole heavy chains; also called CD40 × FAP 2 + 1; huCD40-28H1
B2: P1AD4453 CD40 × FAP (28H1) (4 + 1) (bispecific antibody, human IgG1, kappa, L234A L235A)
heavy 1: not shown
heavy 2: EVQLVESGGGLVQPGGSLRLSCAASGYSFTGYYIHWVRQAPGKGLEWVARVIPNAGGTSYNQKFKGRFTLSVDNSKNTAYLQMNSLRAEDTAVYYCAREGIYWWGQGTLVTVSSASTKGPSVFPLAPSSKSTSGGTAALGCLVKDYFPEPVTVSWNSGALTSGVHTFPAVLQSSGLYSLSSVVTVPSSSLGTQTYICNVNHKPSNTKVDKKVEPKSCDGGGGSGGGGSEVQLVESGGGLVQPGGSLRLSCAASGYSFTGYYIHWVRQAPGKGLEWVARVIPNAGGTSYNQKFKGRFTLSVDNSKNTAYLQMNSLRAEDTAVYYCAREGIYWWGQGTLVTVSSASTKGPSVFPLAPSSKSTSGGTAALGCLVKDYFPEPVTVSWNSGALTSGVHTFPAVLQSSGLYSLSSVVTVPSSSLGTQTYICNVNHKPSNTKVDKKVEPKSCDKTHTCPPCPAPEAAGGPSVFLFPPKPKDTLMISRTPEVTCVVVDVSHEDPEVKFNWYVDGVEVHNAKTKPREEQYNSTYRVVSVLTVLHQDWLNGKEYKCKVSNKALGAPIEKTISKAKGQPREPQVCTLPPSRDELTKNQVSLSCAVKGFYPSDIAVEWESNGQPENNYKTTPPVLDSDGSFFLVSKLTVDKSRWQQGNVFSCSVMHEALHNHYTQKSLSLSPGGGGGSGGGGSGGGGSGGGGSEIVLTQSPGTLSLSPGERATLSCRASQSVSRSYLAWYQQKPGQAPRLLIIGASTRATGIPDRFSGSGSGTDFTLTISRLEPEDFAVYYCQQGQVIPPTFGQGTKVEIK
light: DIQMTQSPSSLSASVGDRVTITCRSSQSLVHSNGNTFLHWYQQKPGKAPKLLIYTVSNRFSGVPSRFSGSGSGTDFTLTISSLQPEDFATYFCSQTTHVPWTFGQGTKVEIKRTVAAPSVFIFPPSDEQLKSGTASVVCLLNNFYPREAKVQWKVDNALQSGNSQESVTEQDSKDSTYSLSSTLTLSKADYEKHKVYACEVTHQGLSSPVTKSFNRGEC
notes: 28H1 VH and VL fused to the C-termini of the knob and hole heavy chains; also called CD40 × FAP 4 + 1; huCD40-28H1
B3: 4B9 IgG1 (antibody, V domains shown)
VH: EVQLLESGGGLVQPGGSLRLSCAASGFTFSSYAMSWVRQAPGKGLEWVSAIIGSGASTYYADSVKGRFTISRDNSKNTLYLQMNSLRAEDTAVYYCAKGWFGGFNYWGQGTLVTVSS
VL: EIVLTQSPGTLSLSPGERATLSCRASQSVTSSYLAWYQQKPGQAPRLLINVGSRRATGIPDRFSGSGSGTDFTLTISRLEPEDFAVYYCQQGIMLPPTFGQGTKVEIK
notes: IgG1; also called Control; FAP(4B9)
B4: P1AD4520 or P1AD9139 mu CD40 (FGK4.5) × FAP (28H1) (4 + 1) (bispecific antibody, mouse IgG1, kappa)
heavy 1: EVQLVESDGGLVQPGRSLKLPCAASGFTFSDYYMAWVRQAPTKGLEWVASISYDGSSTYYRDSVKGRFTISRDNAKSTLYLQMDSLRSEDTATYYCGRHSSYFDYWGQGVMVTVSSAKTTPPSVYPLAPGSAAQTNSMVTLGCLVKGYFPEPVTVTWNSGSLSSGVHTFPAVLQSDLYTLSSSVTVPSSTWPSQTVTCNVAHPASSTKVDKKIVPRDCGGGGSGGGGSEVQLVESDGGLVQPGRSLKLPCAASGFTFSDYYMAWVRQAPTKGLEWVASISYDGSSTYYRDSVKGRFTISRDNAKSTLYLQMDSLRSEDTATYYCGRHSSYFDYWGQGVMVTVSSAKTTPPSVYPLAPGSAAQTNSMVTLGCLVKGYFPEPVTVTWNSGSLSSGVHTFPAVLQSDLYTLSSSVTVPSSTWPSQTVTCNVAHPASSTKVDKKIVPRDCGCKPCICTVPEVSSVFIFPPKPKDVLTITLTPKVTCVVVAISKDDPEVQFSWFVDDVEVHTAQTKPREEQINSTFRSVSELPIMHQDWLNGKEFKCRVNSAAFGAPIEKTISKTKGRPKAPQVYTIPPPKKQMAKDKVSLTCMITNFFPEDITVEWQWNGQPAENYKNTQPIMKTDGSYFVYSKLNVQKSNWEAGNTFTCSVLHEGLHNHHTEKSLSHSPGGGGGSGGGGSGGGGSGGGGSEVQLLESGGGLVQPGGSLRLSCAASGFTFSSHAMSWVRQAPGKGLEWVSAIWASGEQYYADSVKGRFTISRDNSKNTLYLQMNSLRAEDTAVYYCAKGWLGNFDYWGQGTLVTVSS
heavy 2: EVQLVESDGGLVQPGRSLKLPCAASGFTFSDYYMAWVRQAPTKGLEWVASISYDGSSTYYRDSVKGRFTISRDNAKSTLYLQMDSLRSEDTATYYCGRHSSYFDYWGQGVMVTVSSAKTTPPSVYPLAPGSAAQTNSMVTLGCLVKGYFPEPVTVTWNSGSLSSGVHTFPAVLQSDLYTLSSSVTVPSSTWPSQTVTCNVAHPASSTKVDKKIVPRDCGGGGSGGGGSEVQLVESDGGLVQPGRSLKLPCAASGFTFSDYYMAWVRQAPTKGLEWVASISYDGSSTYYRDSVKGRFTISRDNAKSTLYLQMDSLRSEDTATYYCGRHSSYFDYWGQGVMVTVSSAKTTPPSVYPLAPGSAAQTNSMVTLGCLVKGYFPEPVTVTWNSGSLSSGVHTFPAVLQSDLYTLSSSVTVPSSTWPSQTVTCNVAHPASSTKVDKKIVPRDCGCKPCICTVPEVSSVFIFPPKPKDVLTITLTPKVTCVVVAISKDDPEVQFSWFVDDVEVHTAQTKPREEQINSTFRSVSELPIMHQDWLNGKEFKCRVNSAAFGAPIEKTISKTKGRPKAPQVYTIPPPKEQMAKDKVSLTCMITNFFPEDITVEWQWNGQPAENYDNTQPIMDTDGSYFVYSDLNVQKSNWEAGNTFTCSVLHEGLHNHHTEKSLSHSPGGGGGSGGGGSGGGGSGGGGSEIVLTQSPGTLSLSPGERATLSCRASQSVSRSYLAWYQQKPGQAPRLLIIGASTRATGIPDRFSGSGSGTDFTLTISRLEPEDFAVYYCQQGQVIPPTFGQGTKVEIK
light: DTVLTQSPALAVSPGERVTISCRASDSVSTLMHWYQQKPGQQPKLLIYLASHLESGVPARFSGSGSGTDFTLTIDPVEADDTATYYCQQSWNDPWTFGGGTKLELKRADAAPTVSIFPPSSEQLTSGGASVVCFLNNFYPKDINVKWKIDGSERQNGVLNSWTDQDSKDSTYSMSSTLTLTKDEYERHNSYTCEATHKTSTSPIVKSFNRNEC
notes: murine surrogate, tetravalent for mouse CD40, monovalent for FAP (28H1); mouse IgG1 DAPG, DD/KK; also called 4 + 1 with C-terminal VH/VL fusion; muCD40-28H1

Legend:
[1] = target: T1, human fibroblast activation protein (huFAP) (human, UniProt Q12884 1-760); assay: flow cytometry, NIH/3T3-huFAP clone 19 cells, PE anti-human Fc F(ab')2
T1 construct: expressed on transfected NIH/3T3-huFAP clone 19 cells; also called human FAP
Description: (§1) NIH/3T3-huFAP clone 19 and NIH/3T3-mFAP clone 26 were generated by the transfection of the mouse embryonic fibroblast NIH/3T3 cell line (ATCC CRL-1658) with the expression vector pETR4921 to express under 1.5 μg/mL Puromycin selection huFAP or mFAP, respectively.
(§2) NIH/3T3-huFAP, NIH/3T3-mFAP or NIH/3T3-wt cells were cultured with 1× Dulbecco's Modified Eagle's Medium (DMEM) (Gibco, Cat. No. 42430-025) supplemented with 10% Fetal Bovine Serum (FBS) (life technologies, Cat. No. 16140, Lot No. 1797306A). For the NIH/3T3-huFAP and NIH/3T3-mFAP cells 1.5 μg/mL Puromycin (Gibco, Cat. No. A11138-03) was added to the medium for selection of FAP-expressing cells. NIH/3T3 cells were removed from the plate by using enzyme-free Cell Dissociation Buffer (Gibco, Cat. No. 13151014). 0.3×10⁵ NIH/3T3-huFAP clone 19, NIH/3T3-mFAP clone 26 or NIH/3T3-wt were added in 200 μl of 1×DMEM 10% FBS to each well of a round-bottom 96-well plate (Greiner Bio-One, CELLSTAR®, Cat. No. 650185). Plates were centrifuged 5 minutes at 1700 rpm and supernatants were flicked off. Cells were washed once with 200 μL of 4° C. cold FACS buffer (eBioscience, Cat. No. 00-4222-26). All samples were resuspended in 50 μL/well of 4° C. cold FACS buffer containing the bispecific antigen binding molecules (primary antibody) or isotype control antibody DP47 at the indicated range of concentrations (in duplicates) and incubated for 120 minutes at 4° C. Afterwards the cells were washed three times with 200 μL 4° C. cold FACS buffer. Cells were further stained with 25 μL/well of 4° C. cold secondary antibody solution (1:50 dilution of secondary antibody) containing R-Phycoerythrin (PE) conjugated AffiniPure F(ab′)₂ Fragment Goat Anti-Human IgG, Fcγ Fragment Specific (Jackson ImmunoResearch, Cat. No. 109-116-098) and incubated for 60 minutes at 4° C. in the dark. Cells were washed with 200 μl FACS buffer and resuspended in 85 μL/well FACS-buffer containing 0.2 μg/mL DAPI (Roche, Cat. No. 10236276001) and acquired the same day using 5-laser LSR-Fortessa (BD Bioscience with DIVA software). Data analysis was performed using the FlowJo version 10 software (FlowJo LLC).

[2] = target: T2, mouse fibroblast activation protein (mFAP) (mouse, UniProt P97321 1-761); assay: flow cytometry on NIH/3T3-mFAP cells (3T3_mFAP), PE-labelled anti-human IgG Fcgamma F(ab')2 secondary, MFI baseline corrected
T2 construct: expressed on transfected NIH/3T3-mFAP clone 26 cells; also called murine FAP; mouse FAP
Description: as §1, §2

[3] = target: T3, His-tagged human dimeric FAP (recombinant FAP_ECD) (human, UniProt Q12884 27-760); assay: SPR (Biacore T200), His-tagged dimeric huFAP ECD captured by anti-His, antibody as analyte, 1:1 fit (avidity)
T3 construct: also called hu FAP ectodomain + poly-lys-tag + his6-tag
Description: The capacity of the bispecific constructs to bind human FAP was assessed by surface plasmon resonance (SPR). All SPR experiments were performed on a BIACORE® T200 (BIACORE®) at 25° C. with HBS-EP as running buffer (0.01 M HEPES pH 7.4, 0.15 M NaCl, 3 mM EDTA, 0.005% Surfactant P20, (BIACORE®).
His-tagged human dimeric FAP (recombinant FAP_ECD) was captured on a CM5 chip (GE Healthcare) immobilized with anti-His antibody (Qiagen Cat. No. 34660) by injection of 500 nM huFAP for 60 s at a flow rate of 10 uL/min, 10 nM murine FAP for 20 s at a flow rate of 20 uL/min and 10 nM cynoFAP for 20 s at a flow rate of 20 uL/min. Immobilization levels for the anti-His antibody of up to 18000 resonance units (RU) were used. Following the capture step, the bispecific antibodies as well as control molecules were immediately passed over the chip surface at a concentration ranging from 0.78-100 nM with a flow rate of […] for 280 s and a dissociation phase of 180 s. Bulk refractive index differences were corrected for by subtracting the response obtained in a reference flow cell, where no FAP was immobilized. Avidity was determined using the Langmuir 1:1 curve fitting. For bivalent binding the same 1:1 fitting was used leading to an apparent KD value.

T2 sequence (P97321 whole entry): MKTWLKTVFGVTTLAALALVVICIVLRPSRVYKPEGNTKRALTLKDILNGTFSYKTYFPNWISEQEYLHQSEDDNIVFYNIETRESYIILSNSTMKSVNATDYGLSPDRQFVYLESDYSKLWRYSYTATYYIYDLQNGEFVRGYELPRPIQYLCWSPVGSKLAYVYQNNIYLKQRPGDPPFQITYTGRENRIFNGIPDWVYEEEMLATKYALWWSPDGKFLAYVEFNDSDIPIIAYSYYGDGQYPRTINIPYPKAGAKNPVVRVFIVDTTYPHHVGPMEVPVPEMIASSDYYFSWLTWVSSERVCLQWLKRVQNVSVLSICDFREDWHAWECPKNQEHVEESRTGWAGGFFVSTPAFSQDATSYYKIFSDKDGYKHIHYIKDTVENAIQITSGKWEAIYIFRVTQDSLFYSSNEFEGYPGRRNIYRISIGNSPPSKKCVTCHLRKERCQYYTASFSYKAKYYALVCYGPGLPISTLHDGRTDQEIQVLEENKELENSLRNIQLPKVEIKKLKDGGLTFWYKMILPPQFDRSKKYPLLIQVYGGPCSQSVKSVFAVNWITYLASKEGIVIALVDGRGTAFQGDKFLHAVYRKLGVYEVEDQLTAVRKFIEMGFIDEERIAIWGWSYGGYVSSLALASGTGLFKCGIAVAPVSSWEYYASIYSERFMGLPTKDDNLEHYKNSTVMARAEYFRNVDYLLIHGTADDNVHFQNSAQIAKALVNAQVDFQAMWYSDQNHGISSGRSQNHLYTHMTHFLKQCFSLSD

Row | Binder | EC50 [1] [nM] | binding result [2] | Kd [3] [nM] | koff [3] [s⁻¹] | kon [3] [M⁻¹ s⁻¹]
1 | B1 | 33 | binds | – | – | –
2 | B2 | 47.1 | binds | – | – | –
3 | B3 | – | – | 0.08 | 0.000172 | 2.19e+06
4 | B4 | – | – | 2.7 | 0.00155 | 576000

Source: patent publication US20250179205A1 (Hoffmann-La Roche, published 2025)
